What all share (experiment): cell-based or functional assay
Experiment [1] concerns the target T1, MSLN (Mesothelin) on HCT116 or GSU cells (UniProt Q13421 37-598, limits assumed).
For experiment [2], the target named is T2, CDH3 (Cadherin-3, P-Cadherin) on HCT116 or GSU cells (UniProt P22223 108-829, limits assumed).
Experiment [3] concerns the target T1, MSLN (Mesothelin) on HCT116 or GSU cells. This is another data set of the same source.
Experiment [4] has as its target T2, CDH3 (Cadherin-3, P-Cadherin) on HCT116 …. This is another data set of the same source.

B1: MSLN-CDH3 T-cell engager molecule 5 (example to FIG. 2D) (bispecific antibody, human IgG1, kappa, N297G)
chain 1: not shown
chain 2: EVQLVESGGGLVQPGGSLKLSCAASGFTFNKYAMNWVRQAPGKGMEWVARIRSKYNNYATYYADAVKDRFTISRDDSKNTLYLQMNNLKTEDTAVYYCVRAGNFGSSYISYFAYWGQGTLVTVSSGGGGQGGGGQGGGGQQTVVTQEPSLTVSPGGTVTITCGSSTGAVTSGNYPNWIQKKPGQAPRGLIGGTKFLAPGTPARFSGSLEGGKAALTLSGVQPEDEAEYYCVLYYSNRWVFGSGTKLTVLGGGGGDKTHTCPPCPAPELLGGPSVFLFPPKPKDTLMISRTPEVTCVVVDVSHEDPEVKFNWYVDGVEVHNAKTKPCEEQYGSTYRCVSVLTVLHQDWLNGKEYKCKVSNKALPAPIEKTISKAKGQPREPQVYTLPPSRKEMTKNQVSLTCLVKGFYPSDIAVEWESNGQPENNYKTTPPVLKSDGSFFLYSKLTVDKSRWQQGNVFSCSVMHEALHNHYTQKSLSLSPGKGGGGQGGGGQGGGGQQVQLQESGPGLVKPSETLSLTCTVSGGSISSSSYFWGWIRQPPGKCLEWIGNIYYSGSSNYNPSLKSRVTISVDTSKNQFSLKLSSVTAADTAVYYCARLPRGDRDAFDIWGQGTMVTVSSGGGGQGGGGQGGGGQEIVMTQSPSSLSASVGDRVTITCRASQGISNYLAWYQQKPGKVPKLLIYAASTLQSGVPSRFSGSGSGTDFTLTISSLQPEDFATYYCQQSYSTPFTFGCGTKVEIK
chain 3: EIQMTQSPSSLSASVGDRVTITCRASQDISNYLNWYQQKPGKVPKLLIYYTSRLHSGVPSRFSGSGSGTDFTLTISSLQPEDVATYYCVQYAQFPLTFGCGTKVEIKRTVAAPSVFIFPPSDEQLKSGTASVVCLLNNFYPREAKVQWKVDNALQSGNSQESVTEQDSKDSTYSLESTLTLSKADYEKHKVYACEVTHQGLSSPVTKSFNRGEC
For the molecule B1, in experiment [1], the “EC50 HCT116 KO CDH3 [pM]; TDCC, CDH3 knocked out, MSLN left” value is 8.07 pM; the “EC50 HCT116 WT [pM]; TDCC, cells double positive for CDH3 and MSLN” value was 0.039 pM. For the same molecule, in experiment [2], the “EC50 HCT116 KO MSLN [pM]; TDCC, MSLN knocked out, CDH3 left” value was determined as 2.25 pM; the “EC50 HCT116 WT [pM]; TDCC, cells double positive for CDH3 and MSLN” value was determined as 0.039 pM. In experiment [3], the “EC50 GSU KO CDH3 [pM]; TDCC, CDH3 knocked out, MSLN left” value was 10.5 pM; the “EC50 GSU WT [pM]; TDCC, cells double positive for CDH3 and MSLN” value turned out to be 0.128 pM. Also, in experiment [4], the “EC50 GSU KO MSLN [pM]; TDCC, MSLN knocked out, CDH3 left” value came to 175 pM; the “EC50 GSU WT [pM]; TDCC, cells double positive for CDH3 and MSLN” value turned out to be 0.128 pM.

The record behind these values is patent US20260167720A1 (Amgen, published 2026).
